Laboratory results published in publication PMC8219829.

Target: protective antigen PA63 heptameric pore (PA_(pore)) (Bacillus anthracis)
Test: cryo-EM structure

Substance “protective antigen PA63 heptameric pore (PA_(pore)) (natural protein)” has a stoichiometry N of 7.
